Source: article PMC6154215

Key:
Experiment in all cases: fluorescence polarisation
[1] = target: bivalent wild-type ExoS peptide, fluorescently labeled (Pseudomonas aeruginosa)
[2] = target: bivalent ExoS L423A peptide, fluorescently labeled (Pseudomonas aeruginosa) (UniProt Q51451)
[3] = target: monovalent ExoS L423A peptide, fluorescently labeled (Pseudomonas aeruginosa) (UniProt Q51451)

Q: How did the Kd [1] turn out when “tobacco 14-3-3 homodimer T14-3-3cΔC (domain or fragment)” was run?
A: 0.0455 µM

Q: And the Kd [2]?
A: 5.9 µM

Q: And the Kd [3]?
A: 127 µM
